We go through 35 molecules from patent publication US8008547B2, “Glyphosate-N-acetyltransferase (GAT) genes” (E.I. duPont de Nemours, priority 2000, dated 2011).

Residue numbers refer to the chain shown, from its start.

Broadly, the Km is the concentration of substrate that gives half-maximal velocity.

A short description of the data set: Standard protocol for determination of kcat and KM (continuous spectrophotometric assay, Acetyl CoA hydrolysis at 235 nm). It counts as biochemical. The following applies: purified protein, about 23° C., 0.2 mM acetyl CoA; for Kcat: 20 mM HEPES pH 6.8, 10% ethylene glycol; for Km: pH 6.8, glyphosate 0.125 to 10 mM. The essentials: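 KM from initial rates over 0.125–10 mM glyphosate, fitted by Lineweaver-Burke transformation of Michaelis-Menten; kcat/KM computed as kcat divided by KM. Continuous spectrophotometric read of acetyl-CoA hydrolysis at 235 nm.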

B1: SEQ ID NO: 292: GAT polypeptide (protein)
chain: MIEVKPINAEDTYEIRHRILRPNQPLEACKYETDLLGGTFHLGGYYRGKLISIASFHQAEHPELEGQKQYQLRGMATLEGYREQKAGSTLIRHAEELLRKKGADLLWCNARTSASGYYKKLGFSEQGEVYDIPPTGPHILMYKKLT
modifications: 12_6F9
notes: GAT polypeptide
B1: the Kcat came out at 1.48 s⁻¹ and the Km came out at 1900 µM.

B2: SEQ ID NO: 317: GAT polypeptide (protein)
chain: B1 chain with E128G, I132M, T135V
modifications: 14_6B10
notes: GAT polypeptide
Consider B2, for which the Kcat worked out at 2.245 s⁻¹ and the Km is 1400 µM.

B3: SEQ ID NO: 301: GAT polypeptide (protein)
chain: B1 chain with K30M, G37R, G38S, T39A, G80E, I132T, T135V
modifications: 13_7A7
notes: GAT polypeptide
Regarding B3, the Kcat is 1.95 s⁻¹ and the Km stood at 500 µM.

B4: SEQ ID NO: 326: GAT polypeptide (protein)
chain: B1 chain with K30M, I51V, G80E, T135V
modifications: 15_10D6
notes: GAT polypeptide
Regarding B4, the Kcat is 1.12 s⁻¹ and the Km was 1000 µM.

B5: SEQ ID NO: 324: GAT polypeptide (protein)
chain: B1 chain with I51V, G80E, E96A
modifications: 14_8F7
notes: GAT polypeptide
Take B5: the Kcat turned out to be 1.51 s⁻¹ and the Km amounted to 1800 µM.

B6: SEQ ID NO: 299: GAT polypeptide (protein)
chain: B1 chain with K30M, H57N, G80E, T135V, Y142H
modifications: 13_12G12
notes: GAT polypeptide
B6: the Kcat came to 0.602 s⁻¹ and the Km turned out to be 690 µM.

B7: SEQ ID NO: 319: GAT polypeptide (protein)
chain: B1 chain with G37R, T39A, I51V, Q67L, I132T
modifications: 14_7A11
notes: GAT polypeptide
For the molecule B7, the Kcat was determined as 3.287 s⁻¹ and the Km turned out to be 3700 µM.

B8: SEQ ID NO: 297: GAT polypeptide (protein)
chain: B1 chain with R47Q, Q58K, P62S, A114V, T135I
modifications: 12G7
notes: GAT polypeptide
B8: the Kcat was found to be 0.0383 s⁻¹ and the Km turned out to be 3700 µM.

B9: SEQ ID NO: 303: GAT polypeptide (protein)
chain: B1 chain with G37R, T39A, S115R
modifications: 13_7C1
notes: GAT polypeptide
As to B9, the Kcat came to 0.802 s⁻¹ and the Km worked out at 1500 µM.

B10: SEQ ID NO: 307: GAT polypeptide (protein)
chain: B1 chain with G37R, T39A, I51V, G80E, I132T, T135V
modifications: 14_10H3
notes: GAT polypeptide
With B10, the Kcat was found to be 1.753 s⁻¹ and the Km came out at 600 µM.

B11: SEQ ID NO: 296: GAT polypeptide (protein)
chain: B1 chain with K30M, R47Q, Q58K, P62S, A114V, E128G, V129I, T135I
modifications: 12F5
notes: GAT polypeptide
Consider B11, for which the Kcat amounted to 0.0517 s⁻¹ and the Km stood at 1800 µM.

B12: SEQ ID NO: 313: GAT polypeptide (protein)
chain: B1 chain with G37R, T39A, I51V
modifications: 14_2G11
notes: GAT polypeptide
With B12, the Kcat turned out to be 1.16 s⁻¹ and the Km was 1400 µM.

B13: SEQ ID NO: 311: GAT polypeptide (protein)
chain: B1 chain with T39A, G80E
modifications: 14_12H6
notes: GAT polypeptide
Consider B13, for which the Kcat amounted to 1.52 s⁻¹ and the Km came to 900 µM.

B14: SEQ ID NO: 295: GAT polypeptide (protein)
chain: B1 chain with P62S, I132T, T135V
modifications: 12_7G11
notes: GAT polypeptide
B14: the Kcat was 3.908 s⁻¹ and the Km worked out at 2000 µM.

B15: SEQ ID NO: 302: GAT polypeptide (protein)
chain: B1 chain with G38S
modifications: 13_7B12
notes: GAT polypeptide
Consider B15, for which the Kcat was 1.15 s⁻¹ and the Km worked out at 1700 µM.

B16: SEQ ID NO: 294: GAT polypeptide (protein)
chain: B1 chain with E128G
modifications: 12_7D6
notes: GAT polypeptide
Turning to B16, the Kcat turned out to be 0.898 s⁻¹ and the Km was 1400 µM.

B17: SEQ ID NO: 306: GAT polypeptide (protein)
chain: B1 chain with G37R, T39A, G80E, I132T, T135V
modifications: 14_10C9
notes: GAT polypeptide
In the case of B17, the Kcat amounted to 2.12 s⁻¹ and the Km is 900 µM.

B18: SEQ ID NO: 308: GAT polypeptide (protein)
chain: B1 chain with G37R, T39A, I51V, I132T, T135V
modifications: 14_10H9
notes: GAT polypeptide
With B18, the Kcat worked out at 2.12 s⁻¹ and the Km was determined as 1100 µM.

B19: SEQ ID NO: 298: GAT polypeptide (protein)
chain: B1 chain with K30M, T39A, P62S, E128G, T135I
modifications: 1_2H6
notes: GAT polypeptide
Regarding B19, the Kcat was 0.155 s⁻¹ and the Km was found to be 900 µM.

B20: SEQ ID NO: 263: GAT polypeptide (protein)
chain: B1 chain with G37R, T135V
modifications: 13_10F6
notes: GAT polypeptide
For the molecule B20, the Kcat was 0.81 s⁻¹ and the Km turned out to be 1300 µM.

B21: SEQ ID NO: 315: GAT polypeptide (protein)
chain: B1 chain with G38S, I132T, T135V
modifications: 14_4H8
notes: GAT polypeptide
Consider B21, for which the Kcat amounted to 3.313 s⁻¹ and the Km stood at 2000 µM.

B22: SEQ ID NO: 305: GAT polypeptide (protein)
chain: B1 chain with G80E, T135V
modifications: 13_9F6
notes: GAT polypeptide
With B22, the Kcat came out at 0.983 s⁻¹ and the Michaelis-Menten constant (Km) was 1300 µM.

B23: SEQ ID NO: 323: GAT polypeptide (protein)
chain: B1 chain with I51V, T135V
modifications: 14_7H9
notes: GAT polypeptide
As to B23, the Kcat amounted to 1.07 s⁻¹ and the Michaelis constant (Km) worked out at 1300 µM.

B24: SEQ ID NO: 316: GAT polypeptide (protein)
chain: B1 chain with K30M, I51V, H57N, I132T, T135V, I139V
modifications: 14_6A8
notes: GAT polypeptide
With B24, the Kcat is 0.728 s⁻¹ and the Km came out at 780 µM.

B25: SEQ ID NO: 320: GAT polypeptide (protein)
chain: B1 chain with K30M, G37R, I51V, G80E, I132T, T135A
modifications: 14_7A1
notes: GAT polypeptide
As to B25, the Kcat was found to be 2.597 s⁻¹ and the Km was found to be 1600 µM.

B26: SEQ ID NO: 321: GAT polypeptide (protein)
chain: B1 chain with I51V, E60K, I132T, T135V
modifications: 14_7A9
notes: GAT polypeptide
Take B26: the Kcat came to 4.098 s⁻¹ and the Km was 3200 µM.

B27: SEQ ID NO: 322: GAT polypeptide (protein)
chain: B1 chain with G37R, T39A, H57N, G80E, E96A, I132T, T135V
modifications: 14_7G1
notes: GAT polypeptide
For B27, the Kcat was 2.278 s⁻¹ and the Michaelis-Menten constant (Km) is 660 µM.

B28: SEQ ID NO: 304: GAT polypeptide (protein)
chain: B1 chain with L35S, H57N, E128G, T135V
modifications: 13_8G6
notes: GAT polypeptide
Regarding B28, the Kcat amounted to 0.562 s⁻¹ and the Km amounted to 610 µM.

B29: SEQ ID NO: 309: GAT polypeptide (protein)
chain: B1 chain with G38S, I51V, G80E, E96A, I132T
modifications: 14_11C2
notes: GAT polypeptide
Regarding B29, the Kcat amounted to 1.812 s⁻¹ and the Km amounted to 1000 µM.

B30: SEQ ID NO: 293: GAT polypeptide (protein)
chain: B1 chain with I51V, E96A
modifications: 12_6H6
notes: GAT polypeptide
Take B30: the Kcat came out at 1.51 s⁻¹ and the Km turned out to be 1600 µM.

B31: SEQ ID NO: 312: GAT polypeptide (protein)
chain: B1 chain with H57N, E128G, T135V
modifications: 14_2B6
notes: GAT polypeptide
For B31, the Kcat was 0.57 s⁻¹ and the Km was 630 µM.

B32: SEQ ID NO: 318: GAT polypeptide (protein)
chain: B1 chain with H57N, E96A, I132T, T135V
modifications: 14_6D4
notes: GAT polypeptide
B32: the Kcat is 4.27 s⁻¹ and the Km turned out to be 1000 µM.

B33: SEQ ID NO: 310: GAT polypeptide (protein)
chain: B1 chain with I51V, E96A, S124R, E128G, T135V
modifications: 14_12D8
notes: GAT polypeptide
Regarding B33, the Kcat was determined as 1.04 s⁻¹ and the Km came to 1000 µM.

B34: SEQ ID NO: 325: GAT polypeptide (protein)
chain: B1 chain with G37R, T39A, I51V, S113T, Y130F
modifications: 15_10C2
notes: GAT polypeptide
With B34, the Kcat came to 1.16 s⁻¹ and the Km was 800 µM.

B35: SEQ ID NO: 314: GAT polypeptide (protein)
chain: B1 chain with G37R, T39A, I51V, E96A, E128G, T135A
modifications: 14_3B2
notes: GAT polypeptide
Regarding B35, the Kcat amounted to 1.14 s⁻¹ and the Km amounted to 850 µM.
